Test [1] deals with endogenous RORα of mouse cerebellar neurons and cerebellum (UniProt P51448). As to the kind of experiment: co-immunoprecipitation (IP: RORα, IB: FLAG), quantified output band corrected by input band. The settings on record: primary cerebellar neurons, transient expression; n = 3; parent: est. 0.42; read off a plot.
Test [2] shares this target. As to the kind of experiment: co-immunoprecipitation (IP: FLAG, IB: RORα), quantified output band corrected by input band. The settings on record: primary cerebellar neurons, transient expression; n = 3; parent: est. 3.2; read off a plot.

Chain of UniProt P51448 (P51448 whole entry): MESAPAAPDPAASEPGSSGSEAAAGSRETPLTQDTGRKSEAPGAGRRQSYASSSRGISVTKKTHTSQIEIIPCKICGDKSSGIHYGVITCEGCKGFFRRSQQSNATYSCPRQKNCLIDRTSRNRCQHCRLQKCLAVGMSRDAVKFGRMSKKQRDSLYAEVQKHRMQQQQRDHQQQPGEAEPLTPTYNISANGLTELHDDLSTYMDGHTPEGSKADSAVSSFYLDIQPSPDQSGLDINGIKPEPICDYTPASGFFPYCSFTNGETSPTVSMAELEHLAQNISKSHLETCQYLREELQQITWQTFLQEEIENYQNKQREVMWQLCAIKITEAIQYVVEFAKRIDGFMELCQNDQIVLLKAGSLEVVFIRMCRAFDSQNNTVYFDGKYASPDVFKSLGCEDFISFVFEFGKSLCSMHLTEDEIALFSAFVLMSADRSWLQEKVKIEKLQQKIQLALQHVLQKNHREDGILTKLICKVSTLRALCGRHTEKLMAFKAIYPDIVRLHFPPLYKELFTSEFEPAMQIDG

As for “Human YAP2 WT (FLAG-YAP2 WT) WQDP>AQDA (first WW domain)”, the response is 0.4 in test [1] and 3.1 in test [2].
